B1: GST-RNPC1a (natural protein, UniProt Q9H0Z9-1 1-239, looked up)
chain: MLLQPAPCAPSAGFPRPLAAPGAMHGSQKDTTFTKIFVGGLPYHTTDASLRKYFEGFGDIEEAVVITDRQTGKSRGYGFVTMADRAAAERACKDPNPIIDGRKANVNLAYLGAKPRSLQTGFAIGVQQLHPTLIQRTYGLTPHYIYPPAIVQPSVVIPAAPVPSLSSPYIEYTPASPAYAQYPPATYDQYPYAASPATAASFVGYSYPAAVPQALSAAAPAGTTFVQYQAPQLQPDRMQ
B2: His-tagged RNPC1a (recombinant) (natural protein, UniProt Q9H0Z9-1 1-239, looked up)
chain: B1 chain
B3: GST-HuR (134–326) (domain or fragment, UniProt Q15717 134-326, looked up)
chain: NSRVLVDQTTGLSRGVAFIRFDKRSEAEEAITSFNGHKPPGSSEPITVKFAANPNQNKNVALLSQLYHSPARRFGGPVHHQAQRFRFSPMGVDHMSGLSGVNVPGNASSGWCIFIYNLGQDADEGILWQMFGPFGAVTNVKVIRDFNTNKCKGFGFVTMTNYEEAAMAIASLNGYRLGDKILQVSFKTNKSHK
B4: GST-HuR (Δ95-244) (natural protein, UniProt Q15717 1-326, looked up)
chain: MSNGYEDHMAEDCRGDIGRTNLIVNYLPQNMTQDELRSLFSSIGEVESAKLIRDKVAGHSLGYGFVNYVTAKDAERAINTLNGLRLQSKTIKVSCIFIYNLGQDADEGILWQMFGPFGAVTNVKVIRDFNTNKCKGFGFVTMTNYEEAAMAIASLNGYRLGDKILQVSFKTNKSHK
B5: GST-HuR (183–326) (domain or fragment, UniProt Q15717 183-326, looked up)
chain: FAANPNQNKNVALLSQLYHSPARRFGGPVHHQAQRFRFSPMGVDHMSGLSGVNVPGNASSGWCIFIYNLGQDADEGILWQMFGPFGAVTNVKVIRDFNTNKCKGFGFVTMTNYEEAAMAIASLNGYRLGDKILQVSFKTNKSHK

Common to all, as to assay: pull-down
Test [1] addresses His-tagged HuR (recombinant) (UniProt Q15717 1-326).
A further test concerns the target GST-HuR (1–326) (UniProt Q15717 1-326).
The target of test [2] is B2.

From article PMC2853136 (Nucleic Acids Research, 2010) come the findings set out here.

As to B1, the binding result in test [1] is recorded as “binds”. On to B2, for which the binding result with GST-HuR (1–326) is reported as “binds”. As for B3, the binding result in test [2] is “binds”.

Consider B4, for which, in test [2], the binding result was “binds”. Still for that read-out and setting: next, B5: “binds”.
